Results reported in patent US20150344570A1 (published 2015).

T1: FcγRIIb (human, UniProt P31994 43-217)
T1 construct: extracellular domain; Soluble extracellular domain with C-terminal His tag, used as analyte in Biacore; also called FcgRIIb; 2b; not shown: His tag attached to the C terminus
T1 sequence (looked up): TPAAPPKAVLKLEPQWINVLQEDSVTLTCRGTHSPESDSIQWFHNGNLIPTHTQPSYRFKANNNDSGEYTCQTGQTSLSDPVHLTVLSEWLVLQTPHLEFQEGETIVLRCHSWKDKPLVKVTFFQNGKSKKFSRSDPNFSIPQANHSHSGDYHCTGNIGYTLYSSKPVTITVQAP


Experiments:
[1] = target: T1, FcγRIIb; assay: SPR (Biacore), antibody captured, FcγR as analyte; relative to GpH7-A5/GpH7-B3/GpL16-k0 = 100
Protocol: (§1) The heterodimerized antibodies He Abs in which one of the H chains was introduced with an alteration were assayed for their binding activities to each activating FcγR and inhibitory FcγR according to the method described in Example 4. […] The activating FcγRs in FIGS. 26, 27, 28, and 29 are FcγRIa, FcγRIIa (R), FcγRIIa (H), and FcγRIIIa, respectively.
(§2) Analysis of interaction between objective antibody and the FcγR was carried out using Biacore T100 (GE Healthcare). HBS-EP+ (GE Healthcare) was used as the running buffer, and the measurement temperature was set to 25° C. Chips produced by immobilizing the antigen peptide by the amine coupling method to a Series S Sencor Chip CM5 (GE Healthcare), or alternatively, chips produced by allowing preliminarily biotinylated antigen peptides to interact with and immobilize onto a Series S Sensor Chip SA (certified) (GE Healthcare) were used. Antibodies of interest were captured onto an antigen peptide-immobilized chip, and allowed to interact to each FcγR diluted with running buffer. To regenerate and repeatedly use the chip, the antibodies captured on the chip were washed off by reacting 10 mM glycine-HCl, pH 1.5.

[2] = target: T2, FcγRIa (human, UniProt P12314 16-292); assay: as above
T2 construct: extracellular domain; Soluble extracellular domain with C-terminal His tag, used as analyte in Biacore; also called FcgRI; 1a; not shown: His tag attached to the C terminus
T2 sequence (P12314 16-292): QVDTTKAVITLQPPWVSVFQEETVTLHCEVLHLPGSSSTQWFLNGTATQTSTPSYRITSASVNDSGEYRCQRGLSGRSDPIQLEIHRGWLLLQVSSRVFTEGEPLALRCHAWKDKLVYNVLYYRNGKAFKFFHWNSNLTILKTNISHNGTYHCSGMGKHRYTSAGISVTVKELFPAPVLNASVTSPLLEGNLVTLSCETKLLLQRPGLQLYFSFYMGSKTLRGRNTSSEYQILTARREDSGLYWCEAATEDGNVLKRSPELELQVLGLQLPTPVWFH
Protocol: as §1, §2

Row | Binder | He/Con_2b [1] | He/Con_1a [2]
1 | GpH7-A5/GpH7-B3 variant P331_10E/GpL16-k0 (antibody, human IgG1, kappa, Heterodimerized anti-glypican-3 IgG1; alteration in the GpH7-B3 chain only; also called He Ab) heavy 1: not shown heavy 2: not shown light: DIVMTQSPLSLPVTPGEPASISCQASESLVHSNRNTYLHWYLQKPGQSPQLLIYKVSNRFSGVPDRFSGSGSGTDFTLKISRVEAEDVGVYYCSQNTHVPPTFGQGTKVEIERTVAAPSVFIFPPSDEQLKSGTASVVCLLNNFYPREAKVQWKVDNALQSGNSQESVTEQDSKDSTYSLSSTLTLSKADYEKHKVYACEVTHQGLSSPVTKSFNRGEC | 116 % of control (=100) | 95 % of control (=100)
2 | GpH7-A5/GpH7-B3 variant S239_06M/GpL16-k0 (antibody, human IgG1, kappa, Heterodimerized anti-glypican-3 IgG1; alteration in the GpH7-B3 chain only; also called He Ab) heavy 1: not shown heavy 2: not shown light: DIVMTQSPLSLPVTPGEPASISCQASESLVHSNRNTYLHWYLQKPGQSPQLLIYKVSNRFSGVPDRFSGSGSGTDFTLKISRVEAEDVGVYYCSQNTHVPPTFGQGTKVEIERTVAAPSVFIFPPSDEQLKSGTASVVCLLNNFYPREAKVQWKVDNALQSGNSQESVTEQDSKDSTYSLSSTLTLSKADYEKHKVYACEVTHQGLSSPVTKSFNRGEC | 101 % of control (=100) | 99 % of control (=100)
3 | GpH7-A5/GpH7-B3 variant S239_03V/GpL16-k0 (antibody, human IgG1, kappa, Heterodimerized anti-glypican-3 IgG1; alteration in the GpH7-B3 chain only; also called He Ab) heavy 1: not shown heavy 2: not shown light: DIVMTQSPLSLPVTPGEPASISCQASESLVHSNRNTYLHWYLQKPGQSPQLLIYKVSNRFSGVPDRFSGSGSGTDFTLKISRVEAEDVGVYYCSQNTHVPPTFGQGTKVEIERTVAAPSVFIFPPSDEQLKSGTASVVCLLNNFYPREAKVQWKVDNALQSGNSQESVTEQDSKDSTYSLSSTLTLSKADYEKHKVYACEVTHQGLSSPVTKSFNRGEC | 108 % of control (=100) | 95.9 % of control (=100)
4 | GpH7-A5/GpH7-B3 variant P238_20W/GpL16-k0 (antibody, human IgG1, kappa, Heterodimerized anti-glypican-3 IgG1; alteration in the GpH7-B3 chain only; also called He Ab) heavy 1: not shown heavy 2: not shown light: DIVMTQSPLSLPVTPGEPASISCQASESLVHSNRNTYLHWYLQKPGQSPQLLIYKVSNRFSGVPDRFSGSGSGTDFTLKISRVEAEDVGVYYCSQNTHVPPTFGQGTKVEIERTVAAPSVFIFPPSDEQLKSGTASVVCLLNNFYPREAKVQWKVDNALQSGNSQESVTEQDSKDSTYSLSSTLTLSKADYEKHKVYACEVTHQGLSSPVTKSFNRGEC | 123 % of control (=100) | 99.9 % of control (=100)
5 | GpH7-A5/GpH7-B3 variant N325_20W/GpL16-k0 (antibody, human IgG1, kappa, Heterodimerized anti-glypican-3 IgG1; alteration in the GpH7-B3 chain only; also called He Ab) heavy 1: not shown heavy 2: not shown light: DIVMTQSPLSLPVTPGEPASISCQASESLVHSNRNTYLHWYLQKPGQSPQLLIYKVSNRFSGVPDRFSGSGSGTDFTLKISRVEAEDVGVYYCSQNTHVPPTFGQGTKVEIERTVAAPSVFIFPPSDEQLKSGTASVVCLLNNFYPREAKVQWKVDNALQSGNSQESVTEQDSKDSTYSLSSTLTLSKADYEKHKVYACEVTHQGLSSPVTKSFNRGEC | 169 % of control (=100) | 93.8 % of control (=100)
6 | GpH7-A5/GpH7-B3 variant V266_07I/GpL16-k0 (antibody, human IgG1, kappa, Heterodimerized anti-glypican-3 IgG1; alteration in the GpH7-B3 chain only; also called He Ab) heavy 1: not shown heavy 2: not shown light: DIVMTQSPLSLPVTPGEPASISCQASESLVHSNRNTYLHWYLQKPGQSPQLLIYKVSNRFSGVPDRFSGSGSGTDFTLKISRVEAEDVGVYYCSQNTHVPPTFGQGTKVEIERTVAAPSVFIFPPSDEQLKSGTASVVCLLNNFYPREAKVQWKVDNALQSGNSQESVTEQDSKDSTYSLSSTLTLSKADYEKHKVYACEVTHQGLSSPVTKSFNRGEC | 152 % of control (=100) | 99.3 % of control (=100)

Further lines, results first:

Row | He/Con_2b [1] | He/Con_1a [2] | Binder
7 | 114 % of control (=100) | 96 % of control (=100) | GpH7-A5/GpH7-B3 variant P331_15Y/GpL16-k0 (antibody, human IgG1, kappa, Heterodimerized anti-glypican-3 IgG1; alteration in the GpH7-B3 chain only; also called He Ab) heavy 1: not shown heavy 2: not shown light: DIVMTQSPLSLPVTPGEPASISCQASESLVHSNRNTYLHWYLQKPGQSPQLLIYKVSNRFSGVPDRFSGSGSGTDFTLKISRVEAEDVGVYYCSQNTHVPPTFGQGTKVEIERTVAAPSVFIFPPSDEQLKSGTASVVCLLNNFYPREAKVQWKVDNALQSGNSQESVTEQDSKDSTYSLSSTLTLSKADYEKHKVYACEVTHQGLSSPVTKSFNRGEC
8 | 110 % of control (=100) | 97.6 % of control (=100) | GpH7-A5/GpH7-B3 variant P238_19Q/GpL16-k0 (antibody, human IgG1, kappa, Heterodimerized anti-glypican-3 IgG1; alteration in the GpH7-B3 chain only; also called He Ab) heavy 1: not shown heavy 2: not shown light: DIVMTQSPLSLPVTPGEPASISCQASESLVHSNRNTYLHWYLQKPGQSPQLLIYKVSNRFSGVPDRFSGSGSGTDFTLKISRVEAEDVGVYYCSQNTHVPPTFGQGTKVEIERTVAAPSVFIFPPSDEQLKSGTASVVCLLNNFYPREAKVQWKVDNALQSGNSQESVTEQDSKDSTYSLSSTLTLSKADYEKHKVYACEVTHQGLSSPVTKSFNRGEC
9 | 192 % of control (=100) | 100 % of control (=100) | GpH7-A5/GpH7-B3 variant S267_07I/GpL16-k0 (antibody, human IgG1, kappa, Heterodimerized anti-glypican-3 IgG1; alteration in the GpH7-B3 chain only; also called He Ab) heavy 1: not shown heavy 2: not shown light: DIVMTQSPLSLPVTPGEPASISCQASESLVHSNRNTYLHWYLQKPGQSPQLLIYKVSNRFSGVPDRFSGSGSGTDFTLKISRVEAEDVGVYYCSQNTHVPPTFGQGTKVEIERTVAAPSVFIFPPSDEQLKSGTASVVCLLNNFYPREAKVQWKVDNALQSGNSQESVTEQDSKDSTYSLSSTLTLSKADYEKHKVYACEVTHQGLSSPVTKSFNRGEC
